Reference: article PMC7906036 (Nature, 2020)
Read-outs that look alike come from different tables or passages of the source. Values belong to the molecule of their own block, whether it stands above or below them.

Columns and labels:
[1] = molecular target: human ferroportin (wild type) (human) (UniProt Q9NP59); assay: fluorescence polarisation
[2] = molecular target: human ferroportin (wild type) (human) (UniProt Q9NP59); assay: fluorescence polarisation; remark: listed apart in the source
[3] = molecular target: human ferroportin (wild type) (human) (UniProt Q9NP59); assay: fluorescence polarisation; remark: listed apart in the source
[4] = molecular target: T1, Rhodamine green-hepcidin (Homo sapiens, not fully specified; rhodamine green at position 17); assay: fluorescence polarisation
T1 chain: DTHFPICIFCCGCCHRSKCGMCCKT

[5] = molecular target: human ferroportin (wild type) (human, UniProt Q9NP59); assay: SEC
Sequence of human ferroportin (wild type) (Q9NP59 whole entry): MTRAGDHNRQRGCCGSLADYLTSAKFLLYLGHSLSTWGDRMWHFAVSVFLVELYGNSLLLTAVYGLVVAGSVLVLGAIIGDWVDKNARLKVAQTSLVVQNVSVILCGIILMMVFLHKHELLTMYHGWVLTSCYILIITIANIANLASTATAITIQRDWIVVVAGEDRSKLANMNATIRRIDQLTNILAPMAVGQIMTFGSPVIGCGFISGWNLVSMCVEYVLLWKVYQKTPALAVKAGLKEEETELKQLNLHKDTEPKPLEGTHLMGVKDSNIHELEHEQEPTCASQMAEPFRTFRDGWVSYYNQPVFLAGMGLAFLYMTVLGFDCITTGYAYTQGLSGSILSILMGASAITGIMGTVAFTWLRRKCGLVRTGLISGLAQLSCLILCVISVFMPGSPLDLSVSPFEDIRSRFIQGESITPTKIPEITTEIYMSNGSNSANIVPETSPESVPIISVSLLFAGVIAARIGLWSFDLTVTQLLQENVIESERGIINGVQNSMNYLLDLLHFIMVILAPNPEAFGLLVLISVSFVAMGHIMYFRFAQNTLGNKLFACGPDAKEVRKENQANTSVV

Sequence of human ferroportin (wild type) (human) (Q9NP59 whole entry): as above

Kd [1]: 210 nM | Kd [2]: 7.7 nM | Kd [3]: 2.5 nM
Molecule: Rhodamine green-hepcidin (peptide)

binding result [4]: no binding | binding result [5]: binds
B1: Fab45D8 (Fab, V domains shown)
VH: EVQLQESGPGLAKPSQTLSLTCSVTGSSITSDYWNWIRKFPGNKLEYMGYISYSGSTYYNPSLKSQISITRDTSKNHYYLQLNSVTTEDTATYYCARQGLRNWYFDVWGTGTTVTVSS
VL: DIVLTQSPASLPVSLGQRATISCRASKSVSASAYSYMHWYQQKPGQPPKPLIYLASNLESGVPARFSGSGSGTDFTLNIHPVEEEDAATYYCQHNRELPYTFGGGTKLEIK
